{
  "source": "the DeepSol protein solubility set",
  "data": [
    {"assay": "soluble on expression in E. coli; label from the status in PepcDB or PDB records", "values": [
      {"sequence": "MKIVVAKNIGFCFGVERAIRTVEELLDEGKKVVTDGEIVHNKQVMEQLTKKGLKVSSEMTDGEVFVVRAHGIPKDRLEELKKIFPEVVDLTCPIVSQLFKTAQRYAKERKVIVFGKEDHPEMVALRGYAPAIVTKVPFKLEEKKVVFLSQTTSSLEEYKEFVAAMIRMNEFEEAVFLNTICPVTVNREREVEELSKICDLSIVVGGKHSSNTGKLFRIASKHSKTIWIESPDELPADVVKYGTVCVFSGTSTPNSLIENVVRKLKEMEGKRDGTI", "soluble on expression in E. coli": "soluble"},
      {"sequence": "MKKALMICAAGTMIFVSYSAENTAPEVSKAVEDRITKDYDQDGVYSSYEKALRRAQGSIYVTLPEKRGEWYSTLDKIKEEEKELMPDEEARMRRKR", "soluble on expression in E. coli": "not soluble"},
      {"sequence": "MKKEFSAGGVLFKDGEVLLIKTPSNVWSFPKGNIEPGEKPEETAVREVWEETGVKGEILDYIGEIHYWYTLKGERIFKTVKYYLMKYKEGEPRPSWEVKDAKFFPIKEAKKLLKYKGDKEIFEKALKLKEKFKL", "soluble on expression in E. coli": "soluble"},
      {"sequence": "MKKFFMASLLGSAIALCTTAMAASTDLKALEDAARKEGTVNSVGMPDAWANWKGTWEDLASKYGLKHSDTDMSSAQELAKFEAEKDNASADIGDVGAAFGPIAVTKGVSQPYKPSTWDQVPEWAKDKDGHWALAYTGTIAFIINKDLVKEEERPKTWHDLEKGKYKVAIGDVGTAAQAANGVLAAAIAYKGDESNVAPGLQLFTKLAQQKRLSLANPTIQTLEKGEVEVGVVWDFNGLSYREQIDPKRFEVLIPSDGSVISGYTTVINKYAKHPNAAKLTREYIFSDAGQINLAKGHARPIRAEHLKLPADVQAKLLPNDQYAAAQPIKNAEAWEATSKKLPQMWQEQVIIEME", "soluble on expression in E. coli": "not soluble"},
      {"sequence": "MKKILLCCSAGMSTSMLVKKMQQAAESKGIECKIDALSVNAFEEAIQEYDVCLLGPQVRFQLEELRKTADEYGKNIAAISPQAYGMMKGDEVLQQALDLIN", "soluble on expression in E. coli": "not soluble"},
      {"sequence": "MKKISEQKRKHLENLVDDQGIIGALAIDQRGALKRMMGKYKEVTAQEISDFKVLVSRCLTPETSAILLDPEYGLAAAENRAQTSGLLLAYEKTGYDASTPGRLPDSLDVWSVKRLKEAGADACKFLLYYDVDESEAINERKKAYIERIGSECLAEEIPFFLEIVSYDANNSDSASKEYAKVKPHKVIEAMKEFSKDRYNVDVLKVEVPVNMNFVEGFGTESLYSQDEAQAFFNMQSEATQLPFIFLSAGVSATMFQETLKFAKKAGSSFNGVLCGRATWADGVLPFVQQGAEAAVAWLETTGKTNVEELNQVLRESAVSVFEKIQ", "soluble on expression in E. coli": "not soluble"},
      {"sequence": "MKKKDTCEIFGYDEEKVNRIQGDLQTVDISGVSQILKAIADENRAKITYALCQDEELCVCDIANILGVTIANASHHLRTLYKQGVVNFRKEGKLALYSLGGEAIRQIMMIALAHKKEVKVNV", "soluble on expression in E. coli": "soluble"},
      {"sequence": "MKKKLVGVECLNEYICQSSNKLYADSSVILTPGARDELSRRGVTVVYGPRPESGEAPAACPPGCTCPACTAAKADSGLEQLLFAVAAMLKTEYGITDPEELKNLSCQALRTIKANL", "soluble on expression in E. coli": "not soluble"},
      {"sequence": "MKKLKMASCALVAGLMFSGLTPNAFAEDKISDVKSQINTQNDTLHKQQQERDELQKQMNDLNKTIQGLDKSVQENAAKLDETTKKVADTEQLIEKKNKDIAELQTKIAKREELLRKRLVALQEQPNTNVVTEVLVNSKNVADLVDRLTSVSKILESDEDIMKTQQEDQANVKKDVETVKTKQKELKEAQAQIETAKKELDAEKAKKATAVNDLSGKMDTVVTSMTSTESQLKDLEKQALQLQRIAEQEAQEKAAQEAAAQKQAEQAAKDAQAQPAQAAPAQPAAPANNGGQAQKEEPKKEEPKKEAPKKEDKKPEPTPGPAPAPGVIGKAQQYLGLPYVWGSASPSNGGFDCSGFISYVFGVGRQDVNGYWHSVSKVSSPQPGDLVFFQNTYKNGPSHIGIYVGNGQMIHAGDKGIAYSSLSSSYNQKHFLGYGRF", "soluble on expression in E. coli": "not soluble"},
      {"sequence": "MKKLLAGVLVSAIAFAKPVFMDAEWAKQFCEVWNNTPELVEKLGKSESWTEVPERKLFLYRKDCGPEKQIQLTIKNENGRAVCVYGGWKKDEKTDNDFLMYADTKRWLEMGRKEYGPMKAMLFGRLKFEGPRFVAMKNMGPFEAFLDKIDEVEADTSRCP", "soluble on expression in E. coli": "not soluble"},
      {"sequence": "MKKLLIMLIRFYQRYISPLKPPTCRFTPTCSNYFIQALEKHGLLKGTFLGLRRILRCNPLSKGGYDPVPEEFSFKPRRRWS", "soluble on expression in E. coli": "soluble"},
      {"sequence": "MKKNLLAIALGSVIALTAAPYSLAANDSTIQSSADYSQLVTKRQVVDQLLNDAVEAFKSPARISHAGFTAKMPSNMEIVTDRLLEAYQLEPYRTDLLISAANAQIYNKNVDRAIELFEQALAVAPDDVDLHAYLAVWQRFKGNQAESDQHMATLAKLNAGKAADINRIFDTVDRVLATPLKEKADKGKLDNKGAIVTLGYALNPDGSMHQILVERLETTLAMAKANPDAIIILTGGVPKNHKTEGKLMADWLIGKGVSKDRIIEENYATSTVGNALFSSYALARHNIKHATIISSASHVRRGQTLFEIASWQTGPQGITFDTVSYPDKPLKDLAKASESELLGIYRDALRTYGMWSYRSYPLESRLEHHHHHH", "soluble on expression in E. coli": "soluble"},
      {"sequence": "MKKNLLLLLCLFCLVNVCHAKAKDTFTVFQLNLWHGCTKVPNGDQGIIDVLDQMDADVVFLCEIRDGKQFIPHVIEELEKRGKHYYGETFDLAIGVLSKFKPDSWTKCCIVPGDEGRAMVKMVATIEGQPVSFYSCHLDYRHYQCYMPRGYNGTTWKKMDKPITDEEEVLKANRQSFRDETIRAFIQEVQSDIQQGRPIIMGGDFNEPSHLDWQADTKDLWDHNGAIIHWDCSMMLSKAGFKDAYREKFPNTVRYPGFTFPAGNKLAEEAKLEKLAWAPEADERDRIDFIYYYPLESMLSMKDSKLVGPSETVVRGKITENDSKDKILTPSCIWPSDHKGNLATFKIRKKRLEHHHHHH", "soluble on expression in E. coli": "not soluble"},
      {"sequence": "MKKRLNIGLVGLGCVGSAVAKILQENQEIIKDRAGVGIGIKKAVVRDVKKHKGYPFEISNDLESLIEDEEIDIVVELMGGVEAPYLLAKKTLAKQKAFVTANKAMLAYHRYELEQTAKNTPIGFEASVCGGIPIIKALKDGLSANHILSFKGILNGTSNYILSQMFKNQASFKDALKDAQHLGYAELNPEFDIKGIDAAHKLLILASLAYGIDAKLEEILIEGIEKIEPDDMEFAKEFGYSIKLLGIAKKHPDCIELRVHPSMIKNECMLSKVDGVMNAISVIGDKVGETLYYGAGAGGEPTASAVISDIIEIARKKSSLMLGFETPQKLPLKPKEEIQCAYYARLLVSDEKGVFSQISAILAQNDISLNNVLQKEILHSNKAKILFSTHTTNEKSMLNALKELENLQSVLDTPKMIRLEN", "soluble on expression in E. coli": "not soluble"},
      {"sequence": "MKKRVHILIMTLMLIVACVGCSGSSDNPPPANSLHSASTIPISAMPSFSTPSPTVEDTENQQSKTVNYLINSMTLEEKIGQIFIVAFRKGKSSRPLKVLDNSTKLKIQNFNPGGIILFSENIDTIPQTQKLIRDMQEASKIPMFIAVDEEGGRIARIGNNPKMHSTKIPSAQTIGLADDPELAYEAGRILGAELSALGFNMNFAPVADVNTNPDNPVIGDRSFGSDPYKVGLMVQAMSKGMQEQNVCTVLKHFPGHGDTSYDSHLGQVVINHDIERLRQIELTPFKMGIKAGADGVMTAHIIMPNITGSNLPATLSEEILSGLLRNELKHEKLIITDAMEMKAISNYWSSSKAAVMAFKAGADIILMPESFEEAYNGILKAVKDGEITEERLNQSLQRILALKFERNILANKESSVDPEKVLGRQEHTDIVVKIMQKAEEQNIP", "soluble on expression in E. coli": "not soluble"},
      {"sequence": "MKKSVDFIGVGTGPFNLSIAALSHQIEELNCLFFDEHPHFSWHPGMLVPDCHMQTVFLKDLVSAVAPTNPYSFVNYLVKHKKFYRFLTSRLRTVSREEFSDYLRWAAEDMNNLYFSHTVENIDFDKKSRLFLVQTSRGEYFARNICLGTGKQPYLPPCVKHVTQSCFHASEMNLRRPDLSGKRITVVGGGQSGADLFLNALRGEWGEAAEINWVSRRNNFNALDEAAFADEYFTPEYISGFSGLKEDIRHQLLDEQKMTSDGITADSLLTIYRELYHRFEVLRKPRNIRLLPSRSVTTLESSGPGWKLLMEHHLDRGRESLESDVVIFATGYRSALPQILPSLMPLITMHDKNTFKVRDDFTLEWSGPKENNIFAVNASMQTHGIAEPQLSLMAWRSARILNRVLGRDLFDLSMPPALIQWRSGSRKKPQPEAAALTHYTTNIQE", "soluble on expression in E. coli": "soluble"},
      {"sequence": "MKKVAIIGAGIVGATAAYYLSKEKDIAVTVFDDGFGQATKAAAGIICPWFSKRRHKAWYRLARLGADFYQTLLSDLKRDACKVDFYEQSGAFLLKNKAESLDELFEIGQKRKSQSPLIGHLEIQKRADLTGLLADLVGFDRCIYASGAARVEGASLTEALLNASHAKMVNKKVGLQVLSDGNYRVNGKKYTAVLLACGAWLPQILEPLGYKIDIRPQKGQLRDYFFNSEDTEKFPVIMPEGEVDIIPFAHGKVSVGASHENDHGFDLQIDNSVLDKMEKEAQTYFPKLKEATSKNERVGTRAYTRDFAPFFGRVTGLANVYAASGLGSSGLTTGPLIGNQLVKMLLDKELDIQASDYSPDKYIVKNSLEHHHHHH", "soluble on expression in E. coli": "not soluble"},
      {"sequence": "MKKWRFLGIDDSFDDRKCCVVGCVTCGGYVEGFLYTEIDIDGLDATDKLISMVRRSKFREQIKCIFLPGITLGGFNLVDIQRVYRETKIPVVVVMRRKPDMEEFDSAMRNLENYELRRKIVEVAGEIHRIGDIYIQTAGLTPSEAEKLVKASLIKGNMPEPVRISHLVASAIIHGESRGKA", "soluble on expression in E. coli": "soluble"},
      {"sequence": "MKKYILTLILALASLGLYAQTNRNKTIINAALHGWEYEIKAGVNLGGTAPLPFPEEIRSIDGYNPTLSITIEGNMTKWLDTKKKWGIITGLRLENKGMRTKATVKNYNMEIIGYDGNRLKGNWTGGVRTKVQNSYITIPVLAAYKLSPRTTLKLGPYFSYLMDGDFSGHVYEGYLRETNPTGDKINFTNGAIATYDFSGDLRKFQWGVQAGVDWKAFKHLKVHADLNWGLNDIFNKDFKTVTFDMYAIYLNVGFGYAF", "soluble on expression in E. coli": "not soluble"},
      {"sequence": "MKLASLKSTRSRDGELCIVNRLLTAAIRVPHIASTLQYALDHWDVVEPKLQLVYQQLNDNQIEDAFAFAPELCASPLPRAYQWADGSAYVNHVELVRKARGAEMPADFWTNPLMYQGGSDAFLGPRDPILVSSEAYGIDFESEVAVITDDVPMGIDHTNAAHHIKLLMLVNDVSLRNLIPEELAKGFGFFQSKPASSFSPVAITPDELGSYWDGQRVNLPLISHLNEQLFGQPNAGVDMTFSFPELIQHAAKTRFLTAGTIIGSGTVSNLDRSKGSSCIAEKRMLEMIEFGQAKTPFMRFGDRIRIEMLDGQGYSLFGSIDQIVTKYDKDSL", "soluble on expression in E. coli": "not soluble"},
      {"sequence": "MKLDPQTLAHITSATLGNYNRVADDFREGTRDHDVSQNIDALLRHIEGSAPWQILDFGCGPGRDLKTFTAMGHVAVGLDGSERFAEMARAETGCEVFQQNFLELDLPQGRFDGIFANAVLFHIPRQELPRVLRELYATLKPGGVLFSSNPRGQNQEGWQGERYGAYHDLETWRQLLTDAGFAELEHYYRPLEHHHHHH", "soluble on expression in E. coli": "soluble"},
      {"sequence": "MKLERVLPFARSLLQTAVKEGDYAVDATLGNGHDTCFLAEIVGDNGKVFGFDIQKEAIESSTTRLKEKELFERTVLVHDSHDTLLSILPEDAKGKVTGAIFNLGYLPGGDKHIVTKPNSTISAIEQLLEVMAPEGIIVLVIYHGHPEGQVERDAVLKFAEELDQKQAHVLRYGFINQQNNPPFIVAIEKRLEHHHHHH", "soluble on expression in E. coli": "soluble"},
      {"sequence": "MKLFHTADWHLGKLVHGVYMTEDQKIVLDQFVQAVEEEKPDAVIIAGDLYDRAIPPTEAVDLLNDVLQKIVIDLQTPVIAVAGNHDSPDRIHFGSSLMKKQGLHIVGQFQFPYEPVVLNDEYGEVHFHLIPYADPSIVRHVLKNEDVRSHDDAMRIFMNELSETMDKEARHVFVGHAFVTSSGEAEENTSDAERPLSIGGAEYVNSHYFDKFHYTALGHLHQAHFVRNETIRYSGSPLAYSISEEKHKKGYYIVELNETGEVAIEKRLLSPRRKMRTVEAKIDELLQHPVSEDYVFVKLLDENPVLQPMEKIRSVYPNAMHVERAMQRRELTDTNEVTVSRHKTDDLSLLKAFYKEMKGLDLSEEKERLFIDVLQTVQEREGERG", "soluble on expression in E. coli": "not soluble"}
    ]}
  ]
}
